Test results taken from PMC10014274.

Biological target: VNp-mNeongreen-TEV-etanercept-His6 fusion protein (human)
Assay: SDS-PAGE without reducing agent and anti-mNeongreen western blot; VNp-mNG-etanercept purified from E. coli, without DTT

stoichiometry N: 2
Substance: VNp-mNeongreen-TEV-etanercept-His6 fusion protein (Fc fusion)
